Assay results reported in US20220332848A1 (published 2022).

B1: anti-CD47 monoclonal antibody (mAb) (antibody, V domains shown)
VH: EVQLVQSGAEVKKPGSSVKVSCKASGYSFTHHWIHWVRQAPGQGLEWMGMIDASDSETRLSQKFKDRVTITADKSTSTAYMELSSLRSEDTAVYYCARLGRYYFDYWGQGTTVTVSS
VL: EIVLTQSPATLSLSPGERATLSCRASENVGTYISWYQQKPGQAPRLLIYGASNRYTGIPARFSGSGSGTDFTLTISSLEPEDFAVYYCGESYGHLYTFGGGTKVEIKR
B2: bispecific antibody CTLA4-E-HN (bispecific antibody)
heavy: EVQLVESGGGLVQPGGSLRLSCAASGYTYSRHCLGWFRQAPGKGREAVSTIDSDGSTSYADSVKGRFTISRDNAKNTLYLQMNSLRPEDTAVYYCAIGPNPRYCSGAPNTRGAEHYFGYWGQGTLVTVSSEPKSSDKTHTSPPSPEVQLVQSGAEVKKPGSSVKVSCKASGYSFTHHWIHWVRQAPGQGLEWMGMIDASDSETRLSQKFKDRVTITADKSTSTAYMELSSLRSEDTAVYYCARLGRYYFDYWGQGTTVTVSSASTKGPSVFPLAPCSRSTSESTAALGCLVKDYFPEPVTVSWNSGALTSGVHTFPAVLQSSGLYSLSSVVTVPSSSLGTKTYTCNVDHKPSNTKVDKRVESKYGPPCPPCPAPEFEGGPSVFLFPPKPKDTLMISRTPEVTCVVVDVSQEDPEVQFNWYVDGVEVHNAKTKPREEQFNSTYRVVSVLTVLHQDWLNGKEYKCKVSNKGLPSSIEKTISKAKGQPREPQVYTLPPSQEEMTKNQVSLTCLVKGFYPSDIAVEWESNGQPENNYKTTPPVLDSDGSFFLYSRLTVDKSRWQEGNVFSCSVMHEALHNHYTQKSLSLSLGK
light: EIVLTQSPATLSLSPGERATLSCRASENVGTYISWYQQKPGQAPRLLIYGASNRYTGIPARFSGSGSGTDFTLTISSLEPEDFAVYYCGESYGHLYTFGGGTKVEIKRTVAAPSVFIFPPSDEQLKSGTASVVCLLNNFYPREAKVQWKVDNALQSGNSQESVTEQDSKDSTYSLSSTLTLSKADYEKHKVYACEVTHQGLSSPVTKSFNRGEC
B3: bispecific antibody CTLA4-E-HC (bispecific antibody)
heavy: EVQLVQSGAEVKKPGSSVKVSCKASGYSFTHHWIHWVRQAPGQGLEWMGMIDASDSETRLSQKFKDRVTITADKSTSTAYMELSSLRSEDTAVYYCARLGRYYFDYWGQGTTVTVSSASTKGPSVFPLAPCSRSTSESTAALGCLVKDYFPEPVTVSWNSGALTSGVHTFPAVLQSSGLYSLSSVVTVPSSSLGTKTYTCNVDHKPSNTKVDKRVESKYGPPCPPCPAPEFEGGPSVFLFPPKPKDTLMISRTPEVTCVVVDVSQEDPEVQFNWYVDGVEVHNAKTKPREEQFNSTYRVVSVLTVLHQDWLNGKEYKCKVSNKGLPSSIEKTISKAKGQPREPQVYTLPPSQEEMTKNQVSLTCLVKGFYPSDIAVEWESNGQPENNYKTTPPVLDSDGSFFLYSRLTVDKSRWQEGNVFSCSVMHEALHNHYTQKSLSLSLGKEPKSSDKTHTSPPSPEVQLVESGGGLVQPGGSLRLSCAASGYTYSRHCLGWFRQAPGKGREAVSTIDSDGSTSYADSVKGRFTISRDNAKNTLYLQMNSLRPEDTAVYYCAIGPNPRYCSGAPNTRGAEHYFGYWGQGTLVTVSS
light: B2 light
B4: bispecific antibody CTLA4-G15-HN (bispecific antibody)
heavy: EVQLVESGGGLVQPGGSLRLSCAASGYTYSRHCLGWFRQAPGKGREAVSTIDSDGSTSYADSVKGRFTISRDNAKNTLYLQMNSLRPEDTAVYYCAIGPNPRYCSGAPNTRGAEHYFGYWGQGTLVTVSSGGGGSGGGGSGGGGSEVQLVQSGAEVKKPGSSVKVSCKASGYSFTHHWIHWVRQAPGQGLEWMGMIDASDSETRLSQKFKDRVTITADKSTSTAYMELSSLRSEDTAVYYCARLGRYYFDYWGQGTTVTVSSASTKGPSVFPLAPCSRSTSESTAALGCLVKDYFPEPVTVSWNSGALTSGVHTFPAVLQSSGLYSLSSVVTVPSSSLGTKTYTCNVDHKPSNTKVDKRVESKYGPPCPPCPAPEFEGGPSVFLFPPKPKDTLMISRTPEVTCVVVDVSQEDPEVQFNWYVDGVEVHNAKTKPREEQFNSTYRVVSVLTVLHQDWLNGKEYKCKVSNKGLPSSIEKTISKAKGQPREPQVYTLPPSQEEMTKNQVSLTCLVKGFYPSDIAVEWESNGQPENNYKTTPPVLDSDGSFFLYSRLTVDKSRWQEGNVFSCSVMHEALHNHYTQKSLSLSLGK
light: B2 light
B5: bispecific antibody CTLA4-G15-HC (bispecific antibody)
heavy: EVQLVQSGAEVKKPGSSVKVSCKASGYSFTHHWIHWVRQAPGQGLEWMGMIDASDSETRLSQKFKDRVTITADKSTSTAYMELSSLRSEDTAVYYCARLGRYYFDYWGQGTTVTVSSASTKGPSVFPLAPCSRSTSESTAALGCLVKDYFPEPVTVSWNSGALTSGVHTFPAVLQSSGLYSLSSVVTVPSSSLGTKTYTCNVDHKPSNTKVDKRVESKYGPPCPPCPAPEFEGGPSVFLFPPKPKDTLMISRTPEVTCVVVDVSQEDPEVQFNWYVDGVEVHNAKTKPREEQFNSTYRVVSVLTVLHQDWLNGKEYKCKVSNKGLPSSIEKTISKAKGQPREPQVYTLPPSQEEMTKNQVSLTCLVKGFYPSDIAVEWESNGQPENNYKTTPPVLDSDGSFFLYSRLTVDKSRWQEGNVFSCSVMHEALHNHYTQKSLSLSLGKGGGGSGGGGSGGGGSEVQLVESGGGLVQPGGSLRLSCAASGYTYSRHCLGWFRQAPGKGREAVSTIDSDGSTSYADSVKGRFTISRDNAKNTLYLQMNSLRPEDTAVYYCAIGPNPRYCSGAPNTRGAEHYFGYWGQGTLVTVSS
light: B2 light
B6: bispecific antibody CTLA4-G9-LN (bispecific antibody)
light: EVQLVESGGGLVQPGGSLRLSCAASGYTYSRHCLGWFRQAPGKGREAVSTIDSDGSTSYADSVKGRFTISRDNAKNTLYLQMNSLRPEDTAVYYCAIGPNPRYCSGAPNTRGAEHYFGYWGQGTLVTVSSGGGGSGGGSEIVLTQSPATLSLSPGERATLSCRASENVGTYISWYQQKPGQAPRLLIYGASNRYTGIPARFSGSGSGTDFTLTISSLEPEDFAVYYCGESYGHLYTFGGGTKVEIKRTVAAPSVFIFPPSDEQLKSGTASVVCLLNNFYPREAKVQWKVDNALQSGNSQESVTEQDSKDSTYSLSSTLTLSKADYEKHKVYACEVTHQGLSSPVTKSFNRGEC
heavy: not shown

Target: CD47 (UniProt Q08722 19-323)
Assay: FACS

Sequence of CD47 (Q08722 19-323): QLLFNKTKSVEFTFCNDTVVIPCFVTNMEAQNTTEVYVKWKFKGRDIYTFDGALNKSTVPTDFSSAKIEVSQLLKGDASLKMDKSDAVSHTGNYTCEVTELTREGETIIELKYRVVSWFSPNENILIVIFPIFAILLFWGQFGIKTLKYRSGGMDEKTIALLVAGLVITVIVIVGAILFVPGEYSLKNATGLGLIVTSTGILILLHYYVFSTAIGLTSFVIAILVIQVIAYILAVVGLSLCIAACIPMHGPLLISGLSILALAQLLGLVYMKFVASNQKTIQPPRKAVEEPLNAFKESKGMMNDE

EC50 [nM] | Binder
0.905 | B1
2.3 | B2
1.57 | B3
1.81 | B4
1.63 | B5

Target: human CTLA-4 (human, UniProt P16410 36-223)
Assay: FACS binding CHO-K1 cells expressing human CTLA-4

Sequence of human CTLA-4 (P16410 36-223): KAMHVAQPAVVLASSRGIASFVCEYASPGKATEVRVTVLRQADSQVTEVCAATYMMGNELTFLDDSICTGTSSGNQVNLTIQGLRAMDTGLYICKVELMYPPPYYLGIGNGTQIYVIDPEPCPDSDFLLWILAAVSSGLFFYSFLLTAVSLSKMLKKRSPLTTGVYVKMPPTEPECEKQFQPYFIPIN

EC50 [nM] | Binder
~3.2 | B1
3.61 | B2
7.05 | B3
2.93 | B4
6.22 | B5
3.59 | B6
